Measured values from patent US7501273B2, “Peptidylarginine deiminase 6” (N.V. Organon, priority 2001, dated 2009).

Tested on: Soybean Trypsin Inhibitor (STI)
Assay: Determination of PAD6 enzyme activity: citrullination of STI, read out as trypsin activity on a fluorescent substrate
Type: biochemical
Conditions: 0.5 or 1.0 μg GST-PAD6, 0.17 μg STI, 30 minutes at 37° C., 5 mM CaCl2; FIG. 5
Text: Another example of determining the enzymatic activity of PAD6 makes use of the inactivation of a protein e.g. Soybean Trypsin Inhibitor (STI) (Talcahara, H. et al. 1985, J. Biol. Chem. 260, 8378–8383. When an essential arginine in STI is converted into citrulline it is no longer able to inhibit the proteolytic activity of trypsin. This can be used as the basis for a two-step assay for the determination of PAD activity. The assay consists of two steps. In the first reaction PAD converts the arginine (position 63) in STI into a citrulline inactivating the STI. In the second reaction trypsin and a fluorescent substrate are added and trypsin activity is measured.
FIG. 5 Fluorescence measurement to determine PAD activity. STI (0.17 μg) was pre-incubated in the absence (filled square) or presence of 0.5 μg GST-PAD6 (filled triangle), 1.0 μg GST-PAD6 (open triangle), or 0.1 μg rabbit muscle PAD (open square; Sigma cat. No P1584) respectively. Subsequently, Nα-benzoyl-L-Arginine-7-amido-4-methylcoumarin (100 μM; Sigma cat. No. B7260) and trypsin (0.25 μg) were added, and fluorescence determined.
The activity of the PAD was determined by the formation of citrulline in Soybean Trypsin Inhibitor (STI) as a substrate. […] Therefore, an increased activity of trypsin, as detected with a fluorescent trypsin substrate, indicates PAD activity. […]

- PAD activity (increased trypsin activity, fluorescence): could be detected
B1: PAD6: Recombinant full-length human peptidylarginine deiminase 6 (SEQ ID NO:3) expressed in E. coli as GST fusion protein (protein)
chain: MSFQSIIHLSLDSPVHAVCVLGTEICLDLSGCAPQKCQCFTIHGSGRVLIDVANTVISEKEDATIWWPLSDPTYATVKMTSPSPSVDADKVSVTYYGPNEDAPVGTAVLYLTGIEVSLEVDIYRNGQVEMSSDKQAKKKWIWGPSGWGAILLVNCNPADVGQQLEDKKTKKVIFSEEITNLSQMTLNVQGPSCILKKYRLVLHTSKEESKKARVYWPQKDNSSTFELVLGPDQHAYTLALLGNHLKETFYVEAIAFPSAEFSGLISYSVSLVEESQDPSIPETVLYKDTVVFRVAPCVFIPCTQVPLEVYLCRELQLQGFVDTVTKLSEKSNSQVASVYEDPNRLGRWLQDEMAFCYTQAPHKTTSLILDTPQAADLDEFPMKYSLSPGIGYMIQDTEDHKVASMDSIGNLMVSPPVKVQGKEYPLGRVLIGSSFYPSAEGRAMSKTLRDFLYAQQVQAPVELYSDWLMTGHVDEFMCFIPTDDKNEGKKGFLLLLASPSACYKLFREKQKEGYGDALLFDELRADQLLSNGREAKTIDQLLADESLKKQNEYVEKCIHLNRDILKTELGLVEQDIIEIPQLFCLEKLTNIPSDQQPKRSFARPYFPDLLRMIVMGKNLGIPKPFGPQIKGTCCLEEKICCLLEPLGFKCTFINDFDCYLTEVGDICACANIRRVPFAFKWWKMVP
modifications: left off: a dimerising Fc or GST
